In patent US12318456B2, “Therapeutic nanoparticles containing argonaute for microRNA delivery and compositions and methods using same” (KOC UNIVERSITESI, priority 2018, dated 2025):

How the values were obtained:
[1] = tested on: miR-376b; assay: Flag immunoprecipitation of AGO2 and its domains, miRNA level by Taqman QPCR; format: binding; conditions: flag tagged proteins overexpressed in HEK293T cells, immunoprecipitated with flag beads
Excerpt: The miRNA is anchored in AGO2 protein and makes several kinks and turns along the binding groove (Elkayam et al. Cell. 2012. 150:100-110). A binding pocket composed of residues from PAZ and PIWI domains as previously observed interacts with miRNA (Boland et al. EMBO Rep. 2010. 11:522-527; Lingel et al. Nat Struct Mol Biol. 2004. 11:576-577; Schirle et al. Science. 2014. 346:608-613; Wang et al. Nature. 2008. 456:209-213). To determine which domain of AGO2 protein have the key role in miRNA binding affinity, flag tagged AGO2 protein and its domains, PAZ and PIWI, were overexpressed in HEK293T cells in the presence or absence of miR-376b overexpression and they immunoprecipitated with flag beads. […] It can be concluded that each domain of AGO2 protein is essential for the highest binding affinity (FIG. 10).

[2] = Hydrodynamic properties of SPIONs by dynamic light scattering; format: physicochemical; conditions: medium PBS; for HDR Z-average (hydrodynamic size): dynamic light scattering
Description: Hydrodynamic properties of SPIONs were measured after each conjugation step to monitor colloidal stability (Table 2).

| Substance | miRNA binding affinity (miR-376b) [1] | HDR Z-average (hydrodynamic size) [2] | PDI [2] | Zeta Potential [2] |
| --- | --- | --- | --- | --- |
| PAZ: flag tagged AGO2 fragment, aa1-480 | partial role |  |  |  |
| full length AGO2 protein: flag tagged full length Argonaute-2 protein overexpressed in HEK293T cells | greater affinity |  |  |  |
| SPION/AGO2: AGO2 protein covalently attached to SPION/PAA via amide bond (EDC/NHS) |  | 20 nm | 0.43 | −23 mV |
| SPION/AGO2/PEG-MI: SPION/AGO2 reacted with NH2-PEG-Mal (2000 Da) linker |  | 30 nm | 0.59 | −21 mV |
